Source: patent US20140079774A1
Where no end group is shown, it is not given here.

Biological target: Met (hepatocyte growth factor receptor, c-Met) on Hep3B cells (human) (UniProt P08581)
Assay: flow cytometry saturation binding on Hep3B (cytochalasin D pre-treated), specific binding after subtraction of binding in saturating HGF; 0.015 wt % MC40 (~6 peptides/particle)

UniProt P08581, sequence (P08581 25-1390): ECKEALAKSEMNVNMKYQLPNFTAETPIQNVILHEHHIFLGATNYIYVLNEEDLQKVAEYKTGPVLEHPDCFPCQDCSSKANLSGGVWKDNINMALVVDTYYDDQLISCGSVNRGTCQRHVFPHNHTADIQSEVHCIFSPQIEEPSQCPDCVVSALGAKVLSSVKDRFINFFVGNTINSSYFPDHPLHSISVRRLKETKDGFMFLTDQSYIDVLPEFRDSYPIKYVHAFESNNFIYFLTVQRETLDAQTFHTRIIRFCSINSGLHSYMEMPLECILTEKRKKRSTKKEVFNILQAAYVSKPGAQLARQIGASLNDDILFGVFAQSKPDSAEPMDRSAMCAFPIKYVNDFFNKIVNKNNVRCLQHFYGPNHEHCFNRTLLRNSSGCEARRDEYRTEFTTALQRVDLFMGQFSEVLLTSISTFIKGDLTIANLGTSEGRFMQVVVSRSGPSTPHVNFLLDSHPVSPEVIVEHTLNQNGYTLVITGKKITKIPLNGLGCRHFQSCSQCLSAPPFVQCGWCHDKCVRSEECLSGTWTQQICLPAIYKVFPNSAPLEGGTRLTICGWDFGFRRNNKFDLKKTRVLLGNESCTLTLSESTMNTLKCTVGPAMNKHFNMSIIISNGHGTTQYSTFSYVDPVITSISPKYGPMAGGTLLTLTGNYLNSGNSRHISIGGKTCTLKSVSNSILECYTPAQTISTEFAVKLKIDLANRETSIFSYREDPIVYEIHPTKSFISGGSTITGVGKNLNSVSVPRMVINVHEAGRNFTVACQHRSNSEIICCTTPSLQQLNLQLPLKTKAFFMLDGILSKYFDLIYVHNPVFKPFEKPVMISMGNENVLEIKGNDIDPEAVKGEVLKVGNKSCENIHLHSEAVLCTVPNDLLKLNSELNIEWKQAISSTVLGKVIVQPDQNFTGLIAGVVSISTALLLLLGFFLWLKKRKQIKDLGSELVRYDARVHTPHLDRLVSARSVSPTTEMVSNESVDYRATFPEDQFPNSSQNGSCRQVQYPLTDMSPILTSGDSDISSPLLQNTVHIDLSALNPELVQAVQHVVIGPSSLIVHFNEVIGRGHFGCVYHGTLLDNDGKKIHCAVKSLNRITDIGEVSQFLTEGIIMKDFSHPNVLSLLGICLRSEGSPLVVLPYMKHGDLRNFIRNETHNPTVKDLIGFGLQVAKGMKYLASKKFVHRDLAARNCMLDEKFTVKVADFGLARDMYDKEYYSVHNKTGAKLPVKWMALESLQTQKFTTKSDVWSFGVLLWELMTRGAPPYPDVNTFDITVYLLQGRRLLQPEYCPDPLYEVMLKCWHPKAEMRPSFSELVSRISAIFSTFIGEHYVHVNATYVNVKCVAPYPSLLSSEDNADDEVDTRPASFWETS

- Kd: 1.05 nM
B1: MC40-targeted protocells (mesoporous silica nanoparticle-supported lipid bilayers displaying the MC40 targeting peptide) (peptide, not shown: small tags and cut ends)
peptide: ASVHFPPC
modifications: also: C-terminal Cys conjugated via crosslinker to DOPE in the lipid bilayer of a mesoporous silica protocell
